B1: LexA(M24C), oxidized (disulphide-locked dimer in the DNA-binding state) (natural protein, E. coli, UniProt P0A7C2 1-202, looked up)
chain: MKALTARQQEVFDLIRDHISQTGCPPTRAEIAQRLGFRSPNAAEEHLKALARKGVIEIVSGASRGIRLLQEEEEGLPLVGRVAAGEPLLAQQHIEGHYQVDPSLFKPNADFLLRVSGMSMKDIGIMDGDLLAVHKTQDVRNGQVVVARIDDEVTVKRLKKQGNKVELLPENSEFKPIVVDLRQQSFTIEGLAVGVIRNGDWL
modifications: intermolecular disulphide bond between the Cys24 residues of the two subunits
notes: LexA repressor, E. coli, single-cysteine mutant M24C; The reduced form (20 mM DTT) was also used in the cleavage assay but is not made a molecule here; also called oxidized LexA(M24C); source: overexpressed from plasmid pLexAM24C, purified (Ni-NTA); oxidized with 0.5 mM 1,10-phenanthroline and 0.1 mM CuSO4, 30 min, room temperature
B2: tisB operator SPR fragment (dsDNA)
DNA 1: GTTACTACTCGAGCGATTACTGTTTATTTATACAGTAAA
DNA 2: TTTACTGTATAAATAAACAGTAAT
DNA 3: CGCTCGAGTAGTAAC

What was measured:
[1] = target: the molecule itself; test: cross-linking; intermolecular disulphide between Cys24 of two LexA(M24C) subunits on oxidation with 0.5 mM 1,10-phenanthroline and 0.1 mM CuSO4, 30 min, room temperature
[2] = target: LexA wt (UniProt P0A7C2 1-202); test: SPR; 150 nM LexA; LexA-operator SPR: 20 mM NaH2PO4 pH 7.3, 0.14 M NaCl, 0.005% P20, 25 C; RecA-SKBT25: 20 mM NaH2PO4 pH 7.3, 1 mM ATPgS, 2 mM MgCl2, 0.05 mM Ellman's reagent, on; conditions: protein: recombinant; chain copies: 2; label: 3' TEG-biotin on S9; S7 pairs with the 3' 24 nt and S9 with the 5' 15 nt of S10; nick between S7 and S9; blunt

Binder	binding result [1]	binding result [2]
B1	binds	
B2		binds
